From the domain aggregation screens of Martell et al. (2025)

assay: soluble fraction after stress (log2 fold change); higher = more stays soluble; pooled small domains, quantitative proteomics; settings: stress: 50 degC
Summary of the method: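 Custom libraries of small protein domains were pooled and measured in a high-throughput format, with quantitative proteomics as the read-out. Each library was stressed at 50°C. The value is the log2 fold change in the amount of each protein that stays soluble after stress, used as a measure of aggregation propensity; higher values mean more of the protein stays soluble.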

Point of comparison: “HMDKELILLWDRVKSKVWQMDIQDSQVANWFQRNYHLTVRLRDFDPPVPPDKFTAEQLASFIKDIERHT”, “soluble fraction (log2)” value -0.597. Against it:
- HMEYTVNRLAQISGVSKRTLRYYDEIGLLRPERVNPNGYRIYGQMQVDLLQQILFYRELGLPLEEIREII — within 0.2 log units, -0.467
- HMDDINVSNSKNIVPNVTGHTGSKAIPVLENLGLDVQYSGFGKVTNQSIPAGTRFKKGETIYLMLE — higher, 0.0979
- HMDAPQRVTYLLPHSRGEVVSWLHRQGEVVAQEYEAEGVRVVVDLRYAQIRQAAKQFDVLPAEG — higher, -0.0612
- HMHTPSGALLSAIEKEWGSFDNFKKEFTTAATSLFGSGWVWLAKDKKGKLYILSENNAGNPITKGYTPILG — higher, -0.262
- HMTRNEFMTALRKRLSHLPAEEQDAALKYYEEYFDEAESEEEAARQLGSPDAIADRILADYGAG — higher, 0.0132
- HMKVTGITDDILQRLKQQKGYLMLSDKSSPDEIYAAFGVSKKVFKQAIGTLFKQRQIIIEEQGIRLAN — higher, -0.39
- HMGFSLEQFGTDPDLKKIVENAFERIITASEGRIFKSDFSSNNSALPLEIFSFLIAVILLKLSGMN — higher, -0.142
- HMTGGIWVQIQGAVERPGVYSLPRDSRLKDLLEAAGGFGRDADTEKVNQAARLEDGAMYRVPRQGEG — higher, 0.352
- HMLPGKEIPLPEFLREAFARNEPALENFQNLAPSYRRQYILWITSAKTPETVQKRISESIGLLKENRKLGM — higher, 0.0472
- HMISSRDAAVIGLVENIQRAQLNAIDESSGFKHLMETYNLESKEIALLVGKSRSYVSNSLRLSK — higher, -0.0196
- HMIILDASASRAIGNGTIEETKWDFGNGESSTNRGGPIVERQIYANQAAYILKLSMKTNDGQLFTKEIQLL — higher, -0.0666
- HMIDQNEDLLSGYIDEVLSQNPDKVNEYLKGKSGLIGFFMGQIKQKSATALDAALLKSQLETALEKLRIK — higher, 0.059
- HMGTVFTDIMTDIASGKFPNVFPDSLEAQIQKNVTMAPDKLSATLQYGDKSVILPTTKGKEAAEAAVKAA — higher, -0.0555
- HMTKSIDFDFREDGVYIKADKDVTIVDIVTKIDLRRIQSVDLTKIKQMLEIGSLDNWIKIAEPQMEK — higher, 0.0472
- HMAARKDLIAGEDAEGRLDAWLAAALDGEFSRNRVKALIEQGAVAINDVAVTEPKRKIRPGDRLSIVLPEP — higher, 0.339
- HMNMIGDVIRNLRTVSSMTQTELGQRMGVIKQTISNWEKNISTPSIDAIVKLSSIFNVPTDYLL — lower, -1.06
- HMGMMTLGQRIAQYRKAMGISQEELGGRLGVSRQAVSKWETDAAAPDMENLLALAREFGVSVAELTETP — higher, -0.0446
- HMISVTNRTGTGLNDVKVEVFPVGRQMVFSATVFRVESEATNRFSLGELRGSDGTPFNQRVHRPESI — higher, 0.188
- HMNIDVAAEKQQLGPNADQIVKGTVTWMQGLVAKGIWSETDFEEGKIFTATADGINAINKIRRYYGEQT — higher, -0.0611
- HMTGMEASLSKLLQGEQFADLRKALIDKGIRKLEAFKRLNLWVFMNRNRLYSIGQRQTVYSTLQRALASE — higher, 0.0329
- HMTMNYFIIENNQQVGPLTLEQLVARNITSDTLVWKEGMEDWQPAWKVDELHTVLDQIRANAEQ — higher, -0.0599
- HMKKISAKQQQILDYISSYSLEHGYPPSVREIGAEMGLRSPSTVHAHLKKLQEAGYLEPNEHKSRALTP — higher, 0.128
- HMLTKSVLGNQIKVLRLEKGLSQEEFGAPVDLSRSAVSQIESGQMYPSLESIGKIVKYYSTSWDNLVG — lower, -0.821
- HMKQVEVESVIGKSEEAANSILTKAGLKVNIGYKEDSSKPTDTVLSQDPAPGEKVDEGTTVTIVVNNYKKP — higher, 0.0614
- HMEEMTIRQKRTMIFFIEATKHILQEDGYDHLTIREIAQRAGYNAATLYHYFRDLDELIIYGSVG — higher, -0.238
- HMGSLKEKIVLLEKLYQQNPSEEIKLLLINTYQLNHQYIQARKLFFTLTPEQKEKLPLASEFLIFL — lower, -0.871
- HMETWDQAYETIKQNILNLTYPPGMPLTEAKLAEELGMSRSPVRTALRMLQTDGLIVTDYYKSMTVKEI — lower, -1.71
- HMEDKFEYQGELKSLIEPTSFSELVSALNVRDTLQAIIDFAMREEDTSGYEELKVRQNDYIQEYLNSIGNF — lower, -1.04
- HMRNSVQREWIYDYIQRQDAHLSADEIYEGLLKEGKNISLATVYRNLSILVDEYKIASVMTDSKKQVYDK — lower, -1.23
- HMSSNLSLHKEGNKIVILGLEGKSVIEVYDLMGRLLSSQTNYNPKQEITLLQPVIIRVTDTQQTKSFKV — lower, -0.83
- HMNGSVLVTGGSVWIRAGASKETDGLGIVHKGDVLKRSGSDASGWRGVVYEGQNAFISAKYSSI — lower, -0.916
- HMIYMIDPNDEIAVKLDEIYQRYLNRTIDPEGLIFFYNQIRNAQMGYSDVEKRILESPEYVSIPK — higher, -0.242
- HMVLPELRLQGLPTAVLRLINRATALADDYRRLMEIAEDGRIDEWEAPEFERISENIQRVIAAGFEVL — higher, 0.0167
- HMTLDSLEKLSVNDLEKMLVNMPVGYKTIFLLSVIDEYSHKEIGELLGITPETSRSQLFRAIKWIKTNIF — within 0.2 log units, -0.428
- HMDGIDALEPLMRRVFEALPQRRSMTIERAAVAAGLDEESVKIALVRLQLEGYVANDERGWHRSKSPH — lower, -0.911
- HMSNIVNYEVYVYQNDAWDLLARYPSEKRAEAIEYAKSTEFSLNRPTKVIRETYDLDTQKFQEALIYLSE — higher, -0.239
- HMIIVMSANANAREISEVIARIRAMGYDVHLSHGKERTIIGVIGRGTPIDREQLSLMSGVQQVMPV — lower, -1.03
- HMNQIFAPMPGLVLEVKLSEGDVVAEGESAIILEAMKMENIIKSPINGIVKKVHVKKGQTIEKNTLIISFK — lower, -1.15
- HMNRIGERIKRKRELRNLNLGELAEKVGISASALSQIEKSKSFPSVITLKSIAEQLRTTVGELIGEN — higher, 0.0607
- HMTVSIGSVIARERRLRGDTQQELAERLGVSKAAVSKWEVGQSIPDVTLLPRIAAYFSLTLDEL — lower, -2.18
- HMGKKYVPGMAVKLSAVPLYAASTSKVPSTHVTGTYYLWDDEVVRGRLRITNLKSRVGISGQVTGWIDKDR — lower, -1.23
- HMNFKNMIDSLSGILFKKDPSAAIIDIGGVRLKVFITVGSYEQLPAKGEQVEILTYLHVKEDILNLYG — higher, -0.242
- HMQHYQFEVDEASSKKRLDVFLSENLPEISRSRLKKLIDEKRVTVNEMSRPAGYKVRVKEKIEFHIPPL — within 0.2 log units, -0.402
- HMATRAEQMAKTHQAILDTARELFLRNGYDATSTRDIANAIGITQPALYHHFKDKEVIFLAVI — higher, -0.172
- HMAALKVAVLTVSDTRTQETDTSGAFLEGALREAGHEIADRQIVIDDVYQLRAIVSQWIADPEVEVILT — higher, -0.217
- HMGIKLSDRQMQIVEIVKSQQPITSEQVAERLNLTRAALRSDLSILTMAGILEARPKVGYSLTGR — higher, -0.334
- HMFFDSDTDIQNALNAENSIKKYQLFRTQTLYNSAQSDIDFVNQPEVKAKLFDALENLKNKLGFLAEPT — higher, -0.247
- HMSKQKRIKYFLSILNIKSIKQFRKKDLDYFYQKRFIEIQKSSKDKKLVSNQLIELNAAKEYLDEIDFEN — lower, -1.93
- HMALMLGGLIVYLNTTAPRDDIDLIELSKDTKAMAAFGNKLASPDYNGKQFALDWHELSRDEIMSKYFS — lower, -0.987
- HMRPTYRTRLEVLINNPAISGRDLDFAQSLLSYYERKGRLSAGRVKWVTTLEERYSPENLAASAAK — lower, -0.828
- HMNSPSKVIDISQLRKGMFVQLDLGWMSHPFAVGSFKVSTDEQIQTLRGLGLSEVRYIPEKSDPA — within 0.2 log units, -0.514
- HMDHKTKLQEVLQKSGDVFIEYRLIKEEGPAHERIFWIEVYVDDQLIGTGQGKSKKLAEQAAAENALAALE — higher, -0.252
- HMGSIEASFEEDVRRYLARKSMTTTEISKKMRQKRPDMSRDQLMTLLANAIKRIKPIKKKIKGTLYLSLE — lower, -1.3
- HMINLRTALNNAGVMQKELSDILYMTPQDVNRRFSGVTKWKPLEKRAIMQFLEDRGFEYTEEQLF — within 0.2 log units, -0.532
